Source: US20070212355A1 (priority 2005, published 2007)
Like-named read-outs stand apart in the source and are kept apart here. Ends that are not written are not given here.

Tests used:
mutated human GLP-2R [1] = biological target: T1, mutated human GLP-2R (Homo sapiens, UniProt O95838, E512D/G511A/L513V); assay: cAMP expression assay in HEK 293E clonal cell line expressing mutated human GLP-2R; type: cell-based; details: for activity relative to wild type GLP-2 (times less): from Table 5 EC50 values
T1 construct: expressed in transfected cells; host or cells: HEK 293E clonal cell line
T1 sequence (O95838 1-553 G511A/E512D/L513V): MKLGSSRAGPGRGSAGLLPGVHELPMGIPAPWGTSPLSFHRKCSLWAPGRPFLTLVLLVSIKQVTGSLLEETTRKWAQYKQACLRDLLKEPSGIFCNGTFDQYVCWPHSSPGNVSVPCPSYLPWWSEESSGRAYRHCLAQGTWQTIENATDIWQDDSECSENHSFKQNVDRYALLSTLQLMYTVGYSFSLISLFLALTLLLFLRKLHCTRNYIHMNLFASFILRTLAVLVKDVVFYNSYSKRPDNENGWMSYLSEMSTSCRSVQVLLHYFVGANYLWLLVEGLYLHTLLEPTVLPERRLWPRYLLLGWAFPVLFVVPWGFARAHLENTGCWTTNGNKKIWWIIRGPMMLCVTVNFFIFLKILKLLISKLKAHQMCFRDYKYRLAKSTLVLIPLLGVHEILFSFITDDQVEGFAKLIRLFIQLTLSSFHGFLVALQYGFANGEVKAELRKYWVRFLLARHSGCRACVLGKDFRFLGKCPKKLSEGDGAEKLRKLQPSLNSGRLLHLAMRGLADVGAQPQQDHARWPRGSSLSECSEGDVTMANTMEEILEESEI
From the text: To achieve this goal, a clonal cell line expressing a mutated human GLP-2R was generated by transfecting HEK 293E cells. The mutated human GLP-2R differs from the wild-type human GLP-2R (SEQ ID NO: 35) at three amino acid positions within the C-terminal intracellular region (SEQ ID NO: 36).
The cAMP expression was quantitated using the cAMP Direct Screen System (Cat. No. CSD 200, Applied Biosystems, Bedford, Mass.).
This assay was based on the cAMP Direct Screen System from Applied Biosystems utilizing a cell line expressing mutated huGLP-2R in HEK 293E cells. Peptide at concentrations ranging from 0.01 nM to 1.0 uM in PBS with 0.5% BSA was added to ˜50,000 cells suspended in 96-well plates. After a 30-minute incubation at 37° C., Lysis Buffer followed by luminescence reagents (Applied Biosystems) was added according to the manufacturers' procedures (Applied Biosystems Luminescence protocol: cAMP-Screen Direct System). Luminescence was quantitated using a TopCount liquid scintillation analyzer (PerkinElmer), and data was processed using Softmax software (Molecular Devices Corporation).

[2] = SEC-SLS self-association of peptides in PBS (pH 7.5); type: physicochemical; details: 1 mg/ml
Protocol: The self-association poses a challenge to the development and manufacturing of a homogeneous therapeutic.
Solution molecular weight of the peptides was measured by SEC-SLS. Briefly, peptide solutions in PBS (pH 7.5) at 0.4 to 2.0 mg/mL were fractionated over a Superdex peptide column (Amersham Pharmacia). The eluted peaks were monitored by static light scattering at 690 nm and solution molecular weight was determined at UV 280 nm using the Astra software package (Wyatt Inc.).

[3] = CD spectra secondary structure of peptides; type: physicochemical; details: 0.2 mg/mL in PBS, 25° C.
Protocol: The secondary structures of tested peptides were determined using 0.2 mg/mL peptide solutions in PBS. Briefly, CD spectra were collected in triplicate at 1 nm intervals at 25° C. in 0.1 cm path length cell. Secondary structures were determined by fitting of the CD spectra using CD spectra software (CD Spectra Deconvolution software 2.1). All tested peptides contained peaks corresponding to the presence of alpha helices.

mutated human GLP-2R [4] = biological target: T2, mutated human GLP-2R (human, UniProt O95838 1-553); assay: cell-based or functional assay
T2 chain: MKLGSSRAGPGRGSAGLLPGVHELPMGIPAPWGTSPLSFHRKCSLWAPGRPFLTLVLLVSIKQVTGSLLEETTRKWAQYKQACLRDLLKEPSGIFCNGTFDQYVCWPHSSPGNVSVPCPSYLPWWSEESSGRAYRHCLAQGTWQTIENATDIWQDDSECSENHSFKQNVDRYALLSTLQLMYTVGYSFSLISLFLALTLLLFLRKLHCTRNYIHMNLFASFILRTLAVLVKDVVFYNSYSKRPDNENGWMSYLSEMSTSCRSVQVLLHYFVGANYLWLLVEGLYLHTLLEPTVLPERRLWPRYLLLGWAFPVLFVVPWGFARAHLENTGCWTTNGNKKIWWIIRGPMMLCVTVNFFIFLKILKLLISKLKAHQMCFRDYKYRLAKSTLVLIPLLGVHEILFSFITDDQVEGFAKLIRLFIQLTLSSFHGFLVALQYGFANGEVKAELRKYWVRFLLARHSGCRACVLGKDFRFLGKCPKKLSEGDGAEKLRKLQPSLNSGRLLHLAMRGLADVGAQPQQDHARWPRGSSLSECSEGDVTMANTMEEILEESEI

[5] = biological target: mutated human GLP-2R (human) (UniProt O95838); assay: cell-based or functional assay
mutated human GLP-2R [6] = biological target: T2, mutated human GLP-2R; assay: cell-based or functional assay
[7] = biological target: the molecule itself; assay: SEC-SLS, self-association in PBS pH 7.5
[8] = Table 1, mimetibodies with variable linker length / V2 variant, read-out: EC50
[9] = Table 2, mimetibodies with Pro substitution, read-out: EC50

## HGDGSFSDEMNTILDGQAARDFINWLIQTKITD [SEQ ID NO: 55]
Mutated human GLP-2R [1]
  activity relative to wild type GLP-2 (times less): 2 ×
[2]
  SEC-SLS elution / self-association state: mainly monomeric peptide
[3]
  Random coil (percentage): 41.4%
[3]; listed as GLP-2(A2G, N16G, L17Q)
  Helix (percentage of helical structure): 17.0%

## HGDGSFSDEMNTILDNQAARDFINWLIQTKITD [SEQ ID NO: 54]
Mutated human GLP-2R [1]
  activity relative to wild type GLP-2 (times less): 3 ×
[2]
  SEC-SLS elution / self-association state: mainly monomeric peptide
[3]
  Random coil (percentage): 41.8%
[3]; listed as GLP-2(A2G, L17Q)
  Helix (percentage of helical structure): 16.9%

## HSDGSFSDEMNTILDNLAARDFINWLIQTKITD [SEQ ID NO: 2, reference compound]
Mutated human GLP-2R [1]; Example 2, 30 minutes incubation, mimetibodies vs corresponding peptides, read-out: EC50, stimulation of cAMP expression
  EC50: 0.5 nM

## SEQ ID NO: 6: A2G GLP-2 mimetibody linker variant; core HGDGSFSDEMNTILDNLAARDFINWLIQTKITDGGGGSCPPCP (cysteine pairing not given here; also: core of a mimetibody, fused to further protein chains)
Mutated human GLP-2R [1]; [8]
  EC50: 40 nM

## SEQ ID NO: 7: A2G GLP-2 mimetibody linker variant; core HGDGSFSDEMNTILDNLAARDFINWLIQTKITDGGGGSGGGGSCPPCP (cysteine pairing not given here; also: core of a mimetibody, fused to further protein chains)
Mutated human GLP-2R [1]; [8]
  EC50: 22.5 nM

## SEQ ID NO: 8: A2G GLP-2 mimetibody linker variant; core HGDGSFSDEMNTILDNLAARDFINWLIQTKITDGGGGSGGGGSGGGGSCPPCP (cysteine pairing not given here; also: core of a mimetibody, fused to further protein chains)
Mutated human GLP-2R [1]; [8]
  EC50: 12.7 nM

## SEQ ID NO: 9: A2G GLP-2 mimetibody linker variant; core HGDGSFSDEMNTILDNLAARDFINWLIQTKITDGGGGSGGGGSGGGGSGGGGSCPPCP (cysteine pairing not given here; also: core of a mimetibody, fused to further protein chains)
Mutated human GLP-2R [1]; [8]
  EC50: 4.6 nM

## SEQ ID NO: 11: A2G GLP-2 mimetibody V2 region variant; core […] (HGDGSFSDEMNTILDNLAARDFINWLIQTKITDGSGGGSGALVAVSSESKYGPPCPPCP; chains of the parent or of the whole protein)
Mutated human GLP-2R [1]; [8]
  EC50: 3.1 nM

## SEQ ID NO: 42: GLP-2 mimetibody Pro substitution variant; core HGDGSFSDEMNTILDNLAARDFINWLIQTKITDGSGGGSGALVPVSSESKYGPPCPPCP (Mimetibody)
Mutated human GLP-2R [1]; [9]
  EC50: 3.6 nM

## SEQ ID NO: 45: GLP-2 mimetibody Pro substitution variant; core […] (HGDGSFSDEMNTILDNLAARDFINWLIQTKITDGSGGGSGALVAVSSESKPGPPCPPCP)
Mutated human GLP-2R [1]; [9]
  EC50: 5.8 nM

## SEQ ID NO: 79: GLP-1 peptide included as control in the characterization of the analogs [reference compound]
[2]
  SEC-SLS elution / self-association state: single peak with molecular weight within the expected monomer size
[3]
  Helix (percentage of helical structure): 16.8%
  Random coil (percentage): 41.9%

B1: A2S GLP-2 IgG4 mimetibody (Fc fusion)
chain: HSDGSFSDEMNTILDNLAARDFINWLIQTKITDGSGGGSGTLVTVSSESKYGPPCPPCPAPEAAGGPSVFLFPPKPDTLMISRTPEVTCVVVDVSQEDPEVQFNWYVDGVEVHNAKTKPREEQFNSTYRVVSVLTVLHQDWLNGKEYKCKVSNKGLPSSIEKTISKAKGQPREPQVYTLPPSQEEMTKNQVSLTCLVKGFYPSDIAVEWESNGQPENNYKTTPPVLDSDGSFFLYSRLTVDKSRWQEGNVFSCSVMHEALHNHYTQKSLSLSLGK
Mutated human GLP-2R [4]
  EC50, cAMP expression: 2.2 nM
  potency in cAMP expression assay, fold less than the corresponding peptide: ~4 fold

B2: A2G GLP-2 mimetibody V2 region variant SEQ ID NO: 11 (Fc fusion, not shown: a dimerising Fc or GST)
chain: HGDGSFSDEMNTILDNLAARDFINWLIQTKITDGSGGGSGALVAVSSESKYGPPCPPCP
[5]
  EC50 (nM), cAMP expression assay: 3.1 nM

B3: GLP-2 mimetibody Pro substitution variant SEQ ID NO: 45 (Fc fusion, not shown: a dimerising Fc or GST)
chain: HGDGSFSDEMNTILDNLAARDFINWLIQTKITDGSGGGSGALVAVSSESKPGPPCPPCP
[5]
  EC50 (nM), cAMP expression assay: 5.8 nM

B4: GLP-2 mimetibody Pro substitution variant SEQ ID NO: 43 (Fc fusion, not shown: a dimerising Fc or GST)
chain: HGDGSFSDEMNTILDNLAARDFINWLIQTKITDGSGGGSGALVAVPSESKYGPPCPPCP
[5]
  EC50 (nM), cAMP expression assay: 4.8 nM

B5: GLP-2 mimetibody Pro substitution variant SEQ ID NO: 42 (Fc fusion, not shown: a dimerising Fc or GST)
chain: HGDGSFSDEMNTILDNLAARDFINWLIQTKITDGSGGGSGALVPVSSESKYGPPCPPCP
[5]
  EC50 (nM), cAMP expression assay: 3.6 nM

B6: GLP-2 mimetibody Pro substitution variant SEQ ID NO: 44 (Fc fusion, not shown: a dimerising Fc or GST)
chain: HGDGSFSDEMNTILDNLAARDFINWLIQTKITDGSGGGSGALVAVSPESKYGPPCPPCP
[5]
  EC50 (nM), cAMP expression assay: 7.7 nM

B7: A2G GLP-2 mimetibody linker length variant SEQ ID NO: 7 (Fc fusion, part only; not given: Fc CH2 and CH3 domains, part only)
chain, part: HGDGSFSDEMNTILDNLAARDFINWLIQTKITDGGGGSGGGGSCPPCP
modifications: cysteine pairing not given here; also: partial core, CH2-CH3 domains follow in the full mimetibody
[5]
  EC50 (nM), cAMP expression assay: 22.5 nM

B8: GLP-2(A2G, N16G, L17Q) (peptide)
peptide: HGDGSFSDEMNTILDGQAARDFINWLIQTKITD
notes: Synthetic analog of human GLP-2, >95% purity; also called GLP-2(A2G,N16G, L17Q) peptide
Mutated human GLP-2R [4]
  activity in cAMP expression assay, fold less than wild type GLP-2: 2 fold
Mutated human GLP-2R [6]
  cAMP in Vitro EC50 values: 3.5 nM
[7]
  binding result: no binding (tested: 1 mg/ml)

B9: GLP-2(A2G, L17Q) (peptide)
peptide: HGDGSFSDEMNTILDNQAARDFINWLIQTKITD
notes: Synthetic analog of human GLP-2, >95% purity; also called GLP-2(A2G, L17Q) peptide
Mutated human GLP-2R [4]
  activity in cAMP expression assay, fold less than wild type GLP-2: 3 fold
Mutated human GLP-2R [6]
  cAMP in Vitro EC50 values: 5.2 nM
[7]
  binding result: no binding (tested: 1 mg/ml)

## HSDGSFSDEMNTILDNLAARDFINWLIQTKITD [A2S GLP-2 peptide]
Mutated human GLP-2R [4]
  EC50, cAMP expression: 0.5 nM

B10: A2G GLP-2 mimetibody linker length variant SEQ ID NO: 6 (Fc fusion, part only; not given: CH2 and CH3 domains, part only)
chain, part: HGDGSFSDEMNTILDNLAARDFINWLIQTKITDGGGGSCPPCP
modifications: cysteine pairing not given here; also: partial core, CH2-CH3 domains follow in the full mimetibody
[5]
  EC50 (nM), cAMP expression assay: 40 nM

B11: A2G GLP-2 mimetibody linker length variant SEQ ID NO: 8 (Fc fusion, part only; not given: CH2 and CH3 domains, part only)
chain, part: HGDGSFSDEMNTILDNLAARDFINWLIQTKITDGGGGSGGGGSGGGGSCPPCP
modifications: cysteine pairing not given here; also: partial core, CH2-CH3 domains follow in the full mimetibody
[5]
  EC50 (nM), cAMP expression assay: 12.7 nM

B12: A2G GLP-2 mimetibody linker length variant SEQ ID NO: 9 (Fc fusion, part only; not given: CH2 and CH3 domains, part only)
chain, part: HGDGSFSDEMNTILDNLAARDFINWLIQTKITDGGGGSGGGGSGGGGSGGGGSCPPCP
modifications: cysteine pairing not given here; also: partial core, CH2-CH3 domains follow in the full mimetibody
[5]
  EC50 (nM), cAMP expression assay: 4.6 nM

B13: SEQ ID NO: 10: A2G GLP-2 mimetibody linker variant; core HGDGSFSDEMNTILDNLAARDFINWLIQTKITDGGGGSGGGGSGGGGSGGGGSGGGGSCPPCP (protein)
chain: HGDGSFSDEMNTILDNLAARDFINWLIQTKITDGGGGSGGGGSGGGGSGGGGSGGGGSCPPCP
modifications: chains of the parent or of the whole protein
Mutated human GLP-2R [1]; [8]
  EC50: 2.1 nM
